Experimental data: patent publication EP4420676A1 (Medizinische Hochschule Hannover, dated 2024)

T1: human DGCR2 expressed on HEK293T cells (human, UniProt P98153 21-550)
T1 construct: Transiently expressed on HEK293T cells from a vector with eGFP downstream of a P2A site; also called human antigen; DiGeorge Syndrom Critical Region 2
T1 sequence: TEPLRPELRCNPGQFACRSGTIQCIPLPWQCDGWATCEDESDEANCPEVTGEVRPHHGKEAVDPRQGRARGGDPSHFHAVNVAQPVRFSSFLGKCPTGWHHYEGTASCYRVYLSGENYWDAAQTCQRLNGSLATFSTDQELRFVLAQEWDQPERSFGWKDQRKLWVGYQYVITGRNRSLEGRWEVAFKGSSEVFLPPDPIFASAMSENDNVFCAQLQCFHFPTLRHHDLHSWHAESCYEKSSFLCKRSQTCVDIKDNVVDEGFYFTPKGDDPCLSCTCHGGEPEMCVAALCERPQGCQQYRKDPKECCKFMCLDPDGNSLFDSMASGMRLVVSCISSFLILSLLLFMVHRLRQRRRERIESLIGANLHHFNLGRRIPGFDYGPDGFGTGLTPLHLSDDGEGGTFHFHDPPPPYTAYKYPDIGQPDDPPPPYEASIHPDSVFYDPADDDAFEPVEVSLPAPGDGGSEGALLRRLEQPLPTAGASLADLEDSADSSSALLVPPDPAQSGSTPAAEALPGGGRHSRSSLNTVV

T2: murine DGCR2 expressed on HEK293T cells (mouse, UniProt P98154 25-548)
T2 construct: Transiently expressed on HEK293T cells from a vector with eGFP downstream of a P2A site; also called mouse DGCR2; murine antigen
T2 sequence: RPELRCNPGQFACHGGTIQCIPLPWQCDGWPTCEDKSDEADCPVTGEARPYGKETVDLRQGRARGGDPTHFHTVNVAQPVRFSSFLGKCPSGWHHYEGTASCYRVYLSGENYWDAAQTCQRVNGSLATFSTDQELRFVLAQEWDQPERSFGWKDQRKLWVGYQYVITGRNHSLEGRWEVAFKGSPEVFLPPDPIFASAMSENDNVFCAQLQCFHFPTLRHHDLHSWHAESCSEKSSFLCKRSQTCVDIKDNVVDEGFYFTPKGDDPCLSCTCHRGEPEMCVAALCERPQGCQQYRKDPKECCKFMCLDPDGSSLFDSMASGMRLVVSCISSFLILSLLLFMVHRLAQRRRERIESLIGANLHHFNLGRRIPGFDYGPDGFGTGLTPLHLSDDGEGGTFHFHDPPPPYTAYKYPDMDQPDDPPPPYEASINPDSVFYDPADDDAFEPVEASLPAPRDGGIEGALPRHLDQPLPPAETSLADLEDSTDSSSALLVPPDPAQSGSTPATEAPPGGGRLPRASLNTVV


Experiments:
[1] = biological target: T1, human DGCR2 expressed on HEK293T cells; experiment: flow cytometry, soluble scFv on transfected HEK293T cells (figure legend)
[2] = biological target: T2, murine DGCR2 expressed on HEK293T cells; experiment: as above
[3] = biological target: T2, murine DGCR2 expressed on HEK293T cells; experiment: flow cytometry, soluble scFv on transfected HEK293T cells, anti-His PE

| binding result [1] | binding result [2] | binding result [3] | Binder |
| --- | --- | --- | --- |
| binds | binds | – | UK018-G9 scFv (scFv, Soluble scFv produced in E. coli) scFv: QVQLVQSGGGLVQPGGSLRLSCAASGFTFSSYSMSWVRQAPGKGLEWVLGITRGGNTFYADSVTGRFTISRDISKNTVFLQMDSLRVEDTAIYYCAKDWTMSGINVFDTWGQGTLVTVSSGSASAPKLEEGEFSEARVQAVLTQPPSVSGSPGQSVTISCTGTSSDVGAYNRVSWYQQPPGTAPKLMIYEVNNRPSGVPDRFSGSKSGNTASLTISGLQAEDEADYYCSSSTTSSTYVFGTGTKVTVLGQPKANPTVTLFPPSSAAAGSEQKLISEEDLSHHHHHH |
| binds | – | binds | tpi010-A5 scFv (scFv, Soluble scFv produced in E. coli) scFv: EVQLVESGGGLVQPGGSLRLSCAASGFTVSSNYMSWVRQAPGKGLEWVSVIYSGGSTYYADSVKGRFTISRDNAKNSLYLQMNSLRAEDTAVYYCARGWTTFDYWGQGTLVTVSSGSASAPKLEEGEFSEARVQAVLTQPPSLSVSPRQTVTITCSGDQLGDRYVSWYQQKPGQSPMLVIYQDDRRPSGVPERFSGSNSGNTATLTIGGTQAMDQADYYCQTWDNSPVVFGGGTKLTVLGQPKAAPSVTLFPPSSAAAGSEQKLISEEDLSHHHHHH |
| binds | binds | – | UK018-G3 scFv (scFv, Soluble scFv produced in E. coli) scFv: QVQLVQSGGGVVQPGRSLRLSCAASGFTFSSYGMHWVRQAPGKGLEWVAVISYDGSNKYYADSVKGRFTISRDNSKNTLYLQMNSLRAEDTAVYYCAKDRGAVAGTDWYFDLWGRGTLVTVSSGSASAPKLEEGEFSEARVSSELTQDPAVSVALGQTVRITCQGDSLRSYYASWYQQKPGQAPVLVIYGKNNRPSGIPDRFSGSSSGNTASLTITGAQAEDEADYYCNSRDSSGNHVVFGGGTKLTVLGQPKAAPSVTLFPPSSAAAGSEQKLISEEDLSHHHHHH |
